From article doi:10.1101/2024.08.29.610253

How the values were obtained:
[1] = target: interface II mutations (CC2N and C2B variants, ITC); experiment: ITC
[2] = target: liprin-α2_CC2N E380R (human) (UniProt O75334); experiment: ITC
RIM1_C2B (rat) = experiment: SEC-MALS

Sequence of liprin-α2_CC2N E380R (human) (O75334 300-404 E380R): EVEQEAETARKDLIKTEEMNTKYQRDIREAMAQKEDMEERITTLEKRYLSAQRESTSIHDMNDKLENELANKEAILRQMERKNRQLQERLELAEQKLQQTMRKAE

Substance: RIM1_C2B (domain or fragment)
- fold decrease in binding affinity [1]: 5 fold
- fold decrease in binding affinity [2]: 2 fold
- stoichiometry N (RIM1_C2B (rat)): 2
